B1: library; numbered along this chain (parent)
chain: MAAAAAAAAEQQSSNGPVKKSMREKAVERRSVNKEHNSNFKAGYIPIDEDRLHKTGLRGRKGNLAICVIILLFILAVINLIITLVIWAVIRIGPNGCDSMEFHESGLLRFKQVSDMGVIHPLYKSTVGGRRNENLVITGNNQPIVFQQGTTKLSVENNKTSITSDIGMQFFDPRTQNILFSTDYETHEFHLPSGVKSLNVQKASTERITSNATSDLNIKVDGRAIVRGNEGVFIMGKTIEFHMGGNMELKAENSIILNGSVMVSTTRLPSSSSGDQLGSGDWVRYKLCMCADGTLFKVQVTSQNMGCQISDNPCGNTH

Variants of: B1
Experiment: SGCB cell-surface expression functional score (HA stain, bin4 vs bin1, normalised to synonymous) (log10 ratio); higher = more cell-surface SGCB (functional)
Procedure, shortened: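 Codon-saturation libraries of HA-tagged, YFP-fused human beta-sarcoglycan were lentivirally transduced at MOI <0.1 into HEK293 cells stably expressing alpha-, gamma- and delta-sarcoglycan. YFP-positive cells were sorted after 72 hours, grown 5–7 days, stained on ice with Alexa Fluor 647 anti-HA, fixed, sorted into four 5% intensity bins and amplicon-sequenced. The functional score is the log ratio of highest-bin to lowest-bin variant frequency, taken as the median over codons and duplicate transductions. Synonymous variants were scaled per section to mean 0, SD 0.5.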

SGCB cell-surface expression functional score (log10), by site and new letter:
G167: H -0.66, S -1.64, P -1.01, A -0.48, T -1.32, D -1.19, E -1.93, M -1.61, K -0.34, N -1.11, I -2.1, V -0.99, Y -1.42, L -0.9, R -1.14, C -2.06, Q -0.39, W -1.16, F -1.3
T182: M -1.87, F -2.63, N -1.25, R -1.25, V -1.47, E -1.6, A -1.25, C -2.09, G -1.06, Q -1.49, P -1.25, D -2.4, S -1.55, H -1.44, K -0.75, I -1, L -1.43, W -1.65
Q169: Y -0.36, N -1.92, A -1.13, P -1.46, V -0.23, I 0.44, C -1.24, D -0.37, R 0.09, S 0.27, W -1.48, E 0.46, H -0.86, T -0.04, L -0.69, G -1.16, K 0, M -1.88, F -1.89
L179: P -0.55, N -1.22, V -0.27, T -1.12, A 0.06, K 0.28, W 1.37, Y -0.54, D -1.87, E -1.07, G -0.53, M -1.01, Q -0.03, F 0.08, H -1.99, I -0.73, R 0.67, S -1.32
F170: N -1.47, T -0.01, P -1.16, I 0.36, G -0.91, A -0.27, K -0.63, Y -0.86, C -0.28, V 0.47, L 0.11, S -0.47, E -2.21, R -1.14, D -1.87, Q -0.12
Q176: W -0.21, D 0.07, R 0.16, V -0.31, C 1.06, E 0.27, S -0.24, H -0.38, L -0.17, Y -0.78, M -0.21, F -0.66, T -0.34, A 0.1, G 0.46, I -0.61, P -0.31, N 0.38, K -0.32
T175: L 0.08, R 0.24, D -0.47, G 0.14, M -0.5, Y 0.07, I -0.13, E -0.42, K -0.54, Q 1.26, H 0.32, N -0.16, W 1.12, V -0.16, P -1.3, F 0.17, S -0.04, A 0.26, C -0.43
M168: K -0.76, W -2.06, Y -1.79, F -0.59, H -1.85, T -1.24, Q -1.74, R -0.79, A -1.55, L 0.01, I -0.24, S -1.21, D -1.62, P -0.24, V -0.11, C -0.84, G -1.9, N -2.1, E -0.66
F171: N -0.08, V -0.07, I 0.86, Y 0.03, A -0.81, K 0.12, L 0.15, E -1.22, M 1.04, C -1.66, S -0.28, R 0.04, Q 0.8, P -0.43, T 0.72
R174: K 0.08, I -0.15, F -0.97, D -0.81, Y -0.17, S -0.45, H -0.58, W -0.75, E -0.22, V -0.32, G -0.63, Q -1.07, L 0.05, A 0.02, C -0.43, M 0.09, N -1.48, T 0.3, P -0.77
I166: D -1.32, H -0.1, T 0.36, C 0.54, Q -0.21, A -0.49, Y 0.18, G -0.41, K -0.2, L -0.38, R -0.29, W -2.63, N -0.78, M -0.16, E 0.76, S -0.76, F 0.57, P -1.11, V 0.13
D172: T 0.25, W -0.88, A 0.03, R -0.58, M 0.46, F -0.3, I -1.04, E 0.42, Y -0.12, S 0.68, V 0.26, H 0.44, N -0.02, P -1.12, L 0.77, K -0.36, Q -0.19, C 0.95, G 0.2
F180: K -1.78, Q -1.66, V -2.01, N -2.28, L -0.42, H -2.25, E -1.03, A -2.1, G -1.85, R -1.76, C -1.87, T -1.29, I -1.72, S -1.41, Y -1.77, M -1.82, P -1.31, D -1.86
S181: I -1.25, V -1.52, A 0.2, C -0.89, M 0.13, L -1.37, H -1.65, D -0.41, K -1.64, N -1, Y -1.76, E -1.4, T -0.51, Q -1.57, F -1.53, P -1.69, G -0.94, W -1.97, R -0.87
I178: C -0.6, L 0.3, Y -1.19, T -0.41, N -0.4, R -0.26, A -1.66, P 0.29, Q -0.75, D -0.82, E -2.31, V 0.68, S -1.13, W -1.15, M -0.88, H -0.39, G -0.44, F -0.92, K -0.57
D165: F 0.07, K -0.75, G -0.11, R 0.2, T 0.73, N -0.35, Q -1.09, I 0.19, E 0.02, L -0.58, S -0.01, H 0.61, P 0.58, V 0.5, A 0.17, Y -0.38
S164: V -0.34, R -0.91, T -0.69, W -2.58, Y -1.05
P173: R -0.47, E 0, F -0.34, L -0.21, H 0.19, A -0.38, G -0.17, C -0.22, W -1.02, N -0.77, Y -0.68, V 0.67, S 0.5, T -0.17, D -0.84, M 0, I -0.68, Q 0.62, K -0.93
N177: C 0.09, T 0.39, S 0.02, M -0.24, V 0.4, H 0.09, D 0.12, Q 1.3, A 0.49, K -0.45, P -1.5, W -0.44, R 0.42, I 0.12, F -0.18, Y 0.11, E 0.19, G 0.05, L 0.29
